In patent publication US20100311648A1 (AstraZeneca / MedImmune, published 2010):
Each block holds one binder with its values, some of them ahead of it. Positions of bridges follow the written chain, without caps; N, C: chain ends. Non-standard residues stand in square brackets, D forms with d. dPhe(4-CN) = N#Cc1ccc(C[C@@H](N)C(=O)O)cc1; dPhe(2-Cl) = N[C@H](Cc1ccccc1Cl)C(=O)O; dPhe(4-F) = N[C@H](Cc1ccc(F)cc1)C(=O)O; dPhe(2-F) = N[C@H](Cc1ccccc1F)C(=O)O; Orn = NCCC[C@H](N)C(=O)O

Tests used:
[1] = target: T1, human melanocortin-4 receptor (human, UniProt P32245 1-332); test: cell-based or functional assay
T1 sequence (P32245 whole entry): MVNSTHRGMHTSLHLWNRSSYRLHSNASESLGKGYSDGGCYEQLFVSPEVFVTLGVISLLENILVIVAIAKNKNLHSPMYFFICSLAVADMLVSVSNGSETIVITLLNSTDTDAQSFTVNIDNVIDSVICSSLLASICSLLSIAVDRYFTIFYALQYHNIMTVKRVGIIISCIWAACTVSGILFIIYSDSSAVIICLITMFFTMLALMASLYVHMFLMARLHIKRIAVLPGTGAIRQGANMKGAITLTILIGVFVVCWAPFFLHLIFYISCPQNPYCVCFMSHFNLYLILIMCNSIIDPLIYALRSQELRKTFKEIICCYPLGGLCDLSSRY

[2] = target: T2, melanocortin-1 receptor (mouse (B-16 melanoma cells); in some …, UniProt Q01727 1-315); test: [I125]-NDP-α-MSH competition, MC1-R membranes
T2 construct: whole, on cells; membrane homogenates; also called MC1-R; mouse B16 MC1-R
T2 sequence (Q01727 whole entry): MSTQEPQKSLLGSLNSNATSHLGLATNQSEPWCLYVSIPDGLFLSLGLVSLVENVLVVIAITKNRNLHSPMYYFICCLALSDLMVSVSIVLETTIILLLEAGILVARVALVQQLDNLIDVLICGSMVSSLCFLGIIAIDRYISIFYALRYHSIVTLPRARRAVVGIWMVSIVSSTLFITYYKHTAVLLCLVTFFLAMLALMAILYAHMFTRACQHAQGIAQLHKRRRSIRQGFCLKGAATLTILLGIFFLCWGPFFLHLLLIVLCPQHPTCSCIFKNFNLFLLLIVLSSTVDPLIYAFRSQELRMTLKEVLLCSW
Method: (§1) A competitive inhibition binding assay was performed for exemplified peptides according to the invention using membrane homogenates prepared from HEK-293 cells that express recombinant hMC4-R, hMC3-R, or hMC5-R, and from B-16 mouse melanoma cells (containing endogenous MC1-R). In some instances, HEK-293 cells that express recombinant hMC1-R were employed. Assays were performed in 96 well GF/B Millipore multiscreen filtration plates (MAFB NOB10) pre-coated with 0.5% bovine serum albumin (Fraction V). […] After incubation for 60 minutes at 37° C., the assay mixture was filtered and the membranes washed three times with ice-cold buffer. Filters were dried and counted in a gamma counter for bound radioactivity. […] Each assay was conducted in triplicate and the actual mean values are described, with results less than 0% reported as 0%. Ki values for test peptides of the present invention were determined using Graph-Pad Prism® curve-fitting software.

[3] = target: T1, human melanocortin-4 receptor; test: [I125]-NDP-α-MSH competition, hMC4-R HEK-293 membranes
Method: as §1

EC50, cAMP, 0.1 ng/mL Doxycycline [1]: 0.25 nM | EC50, cAMP, 10 ng/mL Doxycycline [1]: 0.095 nM | Intrinsic Activity, cAMP, 0.1 ng/mL Doxycycline [1]: 76% | Intrinsic Activity, cAMP, 10 ng/mL Doxycycline [1]: 92% | Ki [2]: 150 nM | Ki [3]: 3 nM
Binder: Ac-REN[dPhe(4-F)]RW[Orn]-NH2 (lactam 2-7, also called No. 69) [Ac-Arg-cyclo(Glu-Asn-D-Phe(4-F)-Arg-Trp-Orn)-NH2]

EC50, cAMP, 0.1 ng/mL Doxycycline [1]: 18 nM | EC50, cAMP, 10 ng/mL Doxycycline [1]: 0.725 nM | Intrinsic Activity, cAMP, 0.1 ng/mL Doxycycline [1]: 30% | Intrinsic Activity, cAMP, 10 ng/mL Doxycycline [1]: 97% | Ki [2]: 730 nM | Ki [3]: 30 nM
B1: Ac-Arg-cyclo(Glu-Pro-D-Phe(4-F)-Arg-Trp-Orn)-OH (peptide)
peptide: Ac-REP[dPhe(4-F)]RW[Orn]-OH
modifications: lactam 2-7
SMILES: CC(=O)N[C@@H](CCCNC(=N)N)C(=O)N[C@H]1CCC(=O)NCCC[C@@H](C(=O)O)NC(=O)[C@H](Cc2c[nH]c3ccccc23)NC(=O)[C@H](CCCNC(=N)N)NC(=O)[C@@H](Cc2ccc(F)cc2)NC(=O)[C@@H]2CCCN2C1=O

EC50, cAMP, 0.1 ng/mL Doxycycline [1]: 1 nM | EC50, cAMP, 10 ng/mL Doxycycline [1]: 0.085 nM | Intrinsic Activity, cAMP, 0.1 ng/mL Doxycycline [1]: 58% | Intrinsic Activity, cAMP, 10 ng/mL Doxycycline [1]: 93% | Ki [2]: 43 nM | Ki [3]: 5 nM
B2: Ac-Arg-cyclo(Glu-Ser-D-Phe(4-F)-Arg-Trp-Orn)-NH2 (peptide)
peptide: Ac-RES[dPhe(4-F)]RW[Orn]-NH2
modifications: lactam 2-7
SMILES: CC(=O)N[C@@H](CCCNC(=N)N)C(=O)N[C@H]1CCC(=O)NCCC[C@@H](C(N)=O)NC(=O)[C@H](Cc2c[nH]c3ccccc23)NC(=O)[C@H](CCCNC(=N)N)NC(=O)[C@@H](Cc2ccc(F)cc2)NC(=O)[C@H](CO)NC1=O
notes: also called No. 65

EC50, cAMP, 0.1 ng/mL Doxycycline [1]: 5 nM | EC50, cAMP, 10 ng/mL Doxycycline [1]: 0.265 nM | Intrinsic Activity, cAMP, 0.1 ng/mL Doxycycline [1]: 32% | Intrinsic Activity, cAMP, 10 ng/mL Doxycycline [1]: 88% | Ki [2]: 95 nM | Ki [3]: 6 nM
B3: Ac-Arg-cyclo(Glu-Pro-D-Phe(2-F)-Arg-Trp-Orn)-NH2 (peptide)
peptide: Ac-REP[dPhe(2-F)]RW[Orn]-NH2
modifications: lactam 2-7
SMILES: CC(=O)N[C@@H](CCCNC(=N)N)C(=O)N[C@H]1CCC(=O)NCCC[C@@H](C(N)=O)NC(=O)[C@H](Cc2c[nH]c3ccccc23)NC(=O)[C@H](CCCNC(=N)N)NC(=O)[C@@H](Cc2ccccc2F)NC(=O)[C@@H]2CCCN2C1=O
notes: also called No. 66

EC50, cAMP, 0.1 ng/mL Doxycycline [1]: 7 nM | EC50, cAMP, 10 ng/mL Doxycycline [1]: 0.313 nM | Intrinsic Activity, cAMP, 0.1 ng/mL Doxycycline [1]: 33% | Intrinsic Activity, cAMP, 10 ng/mL Doxycycline [1]: 98% | Ki [2]: 300 nM | Ki [3]: 8 nM
B4: Ac-Arg-cyclo(Glu-Ser-D-Phe(2-Cl)-Arg-Trp-Orn)-NH2 (peptide)
peptide: Ac-RES[dPhe(2-Cl)]RW[Orn]-NH2
modifications: lactam 2-7
SMILES: CC(=O)N[C@@H](CCCNC(=N)N)C(=O)N[C@H]1CCC(=O)NCCC[C@@H](C(N)=O)NC(=O)[C@H](Cc2c[nH]c3ccccc23)NC(=O)[C@H](CCCNC(=N)N)NC(=O)[C@@H](Cc2ccccc2Cl)NC(=O)[C@H](CO)NC1=O
notes: also called No. 31

EC50, cAMP, 10 ng/mL Doxycycline [1]: 0.45 nM | Intrinsic Activity, cAMP, 0.1 ng/mL Doxycycline [1]: 12% | Intrinsic Activity, cAMP, 10 ng/mL Doxycycline [1]: 87% | Ki [2]: 10000 nM | Ki [3]: 10 nM
B5: Ac-Arg-cyclo(Glu-Ser-D-Phe(4-CN)-Arg-Trp-Orn)-NH2 (peptide)
peptide: Ac-RES[dPhe(4-CN)]RW[Orn]-NH2
modifications: lactam 2-7
SMILES: CC(=O)N[C@@H](CCCNC(=N)N)C(=O)N[C@H]1CCC(=O)NCCC[C@@H](C(N)=O)NC(=O)[C@H](Cc2c[nH]c3ccccc23)NC(=O)[C@H](CCCNC(=N)N)NC(=O)[C@@H](Cc2ccc(C#N)cc2)NC(=O)[C@H](CO)NC1=O
notes: also called No. 45

EC50, cAMP, 10 ng/mL Doxycycline [1]: 1 nM | Intrinsic Activity, cAMP, 0.1 ng/mL Doxycycline [1]: 4% | Intrinsic Activity, cAMP, 10 ng/mL Doxycycline [1]: 79% | Ki [2]: 1550 nM | Ki [3]: 4 nM
B6: Ac-Arg-cyclo(Glu-Pro-D-Phe(4-CN)-Arg-Trp-Orn)-NH2 (peptide)
peptide: Ac-REP[dPhe(4-CN)]RW[Orn]-NH2
modifications: lactam 2-7
SMILES: CC(=O)N[C@@H](CCCNC(=N)N)C(=O)N[C@H]1CCC(=O)NCCC[C@@H](C(N)=O)NC(=O)[C@H](Cc2c[nH]c3ccccc23)NC(=O)[C@H](CCCNC(=N)N)NC(=O)[C@@H](Cc2ccc(C#N)cc2)NC(=O)[C@@H]2CCCN2C1=O
notes: also called No. 39

EC50, cAMP, 0.1 ng/mL Doxycycline [1]: 6 nM | EC50, cAMP, 10 ng/mL Doxycycline [1]: 0.65 nM | Intrinsic Activity, cAMP, 0.1 ng/mL Doxycycline [1]: 13% | Intrinsic Activity, cAMP, 10 ng/mL Doxycycline [1]: 86% | Ki [2]: 1750 nM | Ki [3]: 7 nM
Binder: XDQXRWK (N-terminal Ac; D-Arg 1; D-Phe(3-Cl) 4; lactam Asp 2-Lys 7; C-terminal NH2, also called No. 80) [Ac-D-Arg-cyclo(Asp-Gln-D-Phe(3-Cl)-Arg-Trp-Lys)-NH2]

EC50, cAMP, 0.1 ng/mL Doxycycline [1]: 1 nM | EC50, cAMP, 10 ng/mL Doxycycline [1]: 0.085 nM | Ki [2]: 335 nM | Ki [3]: 9 nM
Binder: Ac-R[Orn]N[dPhe(2-F)]RWE-NH2 (lactam 2-7, also called No. 71) [Ac-Arg-cyclo(Orn-Asn-D-Phe(2-F)-Arg-Trp-Glu)-NH2]

EC50, cAMP, 0.1 ng/mL Doxycycline [1]: 4 nM | EC50, cAMP, 10 ng/mL Doxycycline [1]: 0.2 nM | Intrinsic Activity, cAMP, 0.1 ng/mL Doxycycline [1]: 48% | Intrinsic Activity, cAMP, 10 ng/mL Doxycycline [1]: 85% | Ki [2]: 395 nM | Ki [3]: 10 nM
Binder: XDQXRWK (N-terminal Ac; D-Arg 1; D-Phe(2-Cl) 4; lactam Asp 2-Lys 7; C-terminal NH2, also called No. 79) [Ac-D-Arg-cyclo(Asp-Gln-D-Phe(2-Cl)-Arg-Trp-Lys)-NH2]
